This is an account of results in US20220033515A1 (Genentech, published 2022).

Where a chain is given by its changes, count along the chain named.

Experiment [1] concerns the target T1, hVEGF109 (human, UniProt P15692 214-315).
T1 construct: range 8-109; also called VEGF (8-109)
T1 sequence (looked up): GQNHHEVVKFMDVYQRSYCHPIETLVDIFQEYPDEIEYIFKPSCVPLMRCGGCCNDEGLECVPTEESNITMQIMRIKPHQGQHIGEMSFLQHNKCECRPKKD
Briefly: single-spot competitive phage ELISA. On the technique in general: ELISA stands for enzyme-linked immunosorbent assay.

For experiment [2], the target named is T2, HER2 extracellular domain (Her2-ECD) (human, UniProt P04626 23-652).
T2 construct: extracellular domain; also called hHER2 extracellular domain (ECD)
Briefly: single-spot competitive phage ELISA.

For experiment [3], the target named is T2, HER2 extracellular domain (Her2-ECD). The experiment is described as follows: competition ELISA of phage-displayed Fab.
Experiment [4] shares this target. The experiment is described as follows: Biacore SPR. For orientation: SPR reads the build-up and loss of mass on a sensor chip optically.
Experiment [5] shares this target. The experiment is described as follows: equilibrium KD; method and format (Fab or IgG) not given; HER2, second number of the cell.
Experiment [6] addresses T1, hVEGF109. The experiment is described as follows: Biacore SPR.
Experiment [7] has as its target T1, hVEGF109. The experiment is described as follows: ELISA on immobilised target.
Experiment [8] addresses T3, hVEGF165 (human, UniProt P15692-4 27-191).
T3 construct: also called human VEGF165
The experiment is described as follows: ELISA on immobilised target.

Experiment [9] concerns the target T4, murine VEGF (mVEGF) (murine, UniProt Q00731-2 27-190).
T4 sequence (looked up): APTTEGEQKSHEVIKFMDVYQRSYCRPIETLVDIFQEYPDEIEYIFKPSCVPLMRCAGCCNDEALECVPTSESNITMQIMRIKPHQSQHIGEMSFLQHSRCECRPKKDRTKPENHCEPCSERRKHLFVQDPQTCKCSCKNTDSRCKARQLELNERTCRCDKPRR
Briefly: ELISA on immobilised target.

Experiment [10] addresses T5, human vascular endothelial growth factor (hVEGF) (human, UniProt P15692-4 27-191).
T5 construct: also called hVEGF-A; human vascular endothelial growth factor A
Briefly: ELISA on immobilised protein.

Experiment [11] concerns the target T6, epidermal growth factor receptor extracellular domain (hEGFR) (human, UniProt P00533 25-645).
T6 construct: extracellular domain
Briefly: ELISA on immobilised protein.

Experiment [12] deals with T7, hVEGF-D (human, UniProt O43915 93-201).
T7 sequence (looked up): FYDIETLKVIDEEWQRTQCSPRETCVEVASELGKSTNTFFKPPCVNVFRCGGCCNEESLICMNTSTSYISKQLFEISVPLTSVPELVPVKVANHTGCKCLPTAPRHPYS
Briefly: ELISA on immobilised protein.

Experiment [13] addresses T8, hVEGF-C (human, UniProt P49767 103-227).
T8 sequence (looked up): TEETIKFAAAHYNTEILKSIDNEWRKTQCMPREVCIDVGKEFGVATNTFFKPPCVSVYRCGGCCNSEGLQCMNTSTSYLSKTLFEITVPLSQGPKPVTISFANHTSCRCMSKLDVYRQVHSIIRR
Briefly: ELISA on immobilised protein.

Experiment [14] has as its target bovine serum albumin (BSA) (bovine, UniProt P02769 25-607). Briefly: ELISA on immobilised protein.

B1: clone 67 (lower block) (scFv, V domains shown)
VH: not shown
VL: DIQMTQSPSSLSASVGDRVTITCRASQDIWRWLAWYQQKPGKAPKLLIYAGSSLYSGVPSRFSGSGSGTDFTLTISSLQPEDFATYYCQQHDQAPPTFGQGTKVEIK
Consider B1, for which, in [1], the “% signal, SSC +/- 50 or 100nM VEGF” value is 85.8% and the OD450 without competitor was 1.05. In experiment [2], the OD450 without competitor came out at 0.05.

B2: 20.49 (Fab, V domains shown)
VH: not shown
VL: DIQMTQSPSSLSASVGDRVTITCRASVDLPKSVSGYVAWYQQKPGKAPKLLIYWGSFLYSGVPSRFSGSGSGTDFTLTISSLQPEDFATYYCQQHFTSPPTFGQGTKVEIKR
B2 had an IC50 in experiment [3] of 2.6 nM.

B3: bH1 Fab (Fab, V domains shown)
VH: not shown
VL: B2 VL with V27Q, L29I, K31R, V33I, F57Y, F96Y, S98T
notes: also called bispecific bH1 Fab
B3 registered an IC50 in [3] of 2.1 nM. This molecule had a Kd in [4] of 59 nM.

B4: 35.2 (Fab, V domains shown)
VH: not shown
VL: B2 VL with S26I, V27E, S32T, F96Y, T97S
B4 showed an IC50 in experiment [3] of 3.5 nM.

B5: 20.93 (Fab, V domains shown)
VH: not shown
VL: B2 VL with S26V, V27E, S32T, V33I, S34T, S98T, T101K
The molecule B5 gave an IC50 in experiment [3] of 3.8 nM. This IC50 and that of the molecule before are within 1.5-fold of each other.

B6: 35.61 (Fab, V domains shown)
VH: not shown
VL: B2 VL with S26I, V27E, D28N, V33I, S34T, F96Y, T97S, S98T, P99T, T101K
As to B6, the IC50 in experiment [3] was 7.1 nM.

B7: 20.80 (Fab, V domains shown)
VH: not shown
VL: B2 VL with V27E, L29I, V33I, T97S
In the case of B7, in [3], the IC50 came to 2.2 nM.

B8: 35.56 (Fab, V domains shown)
VH: not shown
VL: B2 VL with S26V, V27Q, D28N, S32T, V33I, S34T, F96Y, S98I, T101K
Turning to B8, the 50% inhibitory concentration (IC50) in [3] is 1.7 nM.

B9: 35.25 (Fab, V domains shown)
VH: not shown
VL: B2 VL with S26I, V27Q, D28K, L29V, K31R, S32T, V33I, S34T, F96Y
Consider B9, for which the IC50 in experiment [3] stood at 0.4 nM.

B10: 20.52 (Fab, V domains shown)
VH: not shown
VL: B2 VL with S26I, V27E, D28N, S32T, V33I, T97S
In turn, B10 yielded an IC50 in [3] of 3.1 nM.

B11: 35.95 (Fab, V domains shown)
VH: not shown
VL: B2 VL with S26I, V27E, D28N, F96Y
As for B11, in experiment [3], the IC50 was 4.3 nM.

B12: 35.28 (Fab, V domains shown)
VH: not shown
VL: B2 VL with S26I, V27Q, D28N, L29I, P30A, S32T, V33I, S34T, T97N, T101K
B12 came in with an IC50 in experiment [3] of 0.6 nM.

B13: 35.87 (Fab, V domains shown)
VH: not shown
VL: B2 VL with V27Q, D28N, L29I, T97N
As to B13, in experiment [3], the half-maximal inhibitory concentration (IC50) amounted to 2.2 nM.

B14: 35.45 (Fab, V domains shown)
VH: not shown
VL: B2 VL with V27E, L29I, S32T, T97S
B14 yielded an IC50 in experiment [3] of 1.1 nM.

B15: 35.74 (Fab, V domains shown)
VH: not shown
VL: B2 VL with S26I, V27Q, L29I, S32T, V33I, S34T, T97N, T101K
In [3], B15 had a concentration for half-maximal inhibition (IC50) of 0.7 nM.

B16: 35.21 (Fab, V domains shown)
VH: not shown
VL: B2 VL with V27Q, V33I, T97S
As for B16, in experiment [3], the IC50 is 1.4 nM.

B17: 3-3 (scFv, V domains shown)
VH: not shown
VL: DIQMTQSPSSLSASVGDRVTITCRASQQIWRHLAWYQQKPGKAPKLLIYTGSSLYSGVPSRFSGSGSGTDFTLTISSLQPEDFATYYCQQSYWVAPPTFGQGTKVEIK
notes: also called c3-3
On to B17, for which the OD450 without competitor in experiment [2] came out at 0.05.

B18: clone 6 (scFv, V domains shown)
VH: not shown
VL: B17 VL with Q28D, H32A, L33V, T50P, G51A, S53N, S91G, W93Y, V94I
B18: in experiment [1], the “% signal, SSC +/- 50 or 100nM VEGF” value was determined as 85.6% and the OD450 without competitor worked out at 2.12. The molecule also displayed an OD450 without competitor in experiment [2] of 0.04.

B19: H6 (scFv, V domains shown)
VH: not shown
VL: B17 VL with Q28Y, R31N, H32Y, L33V, T50G, Y92W, V94A, A95G
In [2], B19 came in with an OD450 without competitor of 0.05.

B20: bH4 (antibody, V domains shown)
VH: not shown
VL: DIQMTQSPSSLSASVGDRVTITCRASQDIRSGSVAWYQQKPGKAPKLLIYWGSYLYSGVPSRFSGSGSGTDFTLTISSLQPEDFATYYCQQHYTTPPTFGQGTKVEIKR
Take B20: in [5], the affinity, expressed as Kd, was 11 nM.

B21: H3 Fab (Fab, V domains shown)
VH: not shown
VL: B20 VL with R30G, S31L, G52A
notes: also called bH3 Fab
Regarding B21, the Kd in [6] came out at 3930 nM; in experiment [4] it was 8 nM.

B22: clone 75 (scFv, V domains shown)
VH: not shown
VL: DIQMTQSPSSLSASVGDRVTITCRASQDIPSIYVAWYQQKPGKAPKLLIYGASYLYSGVPSRFSGSGSGTDFTLTISSLQPEDFATYYCQQRYWVAPPTFGQGTKVEIK
For B22, in experiment [1], the “% signal, SSC +/- 50 or 100nM VEGF” value is 85.1% and the OD450 without competitor amounted to 2.9. Moreover, the OD450 without competitor in experiment [2] was determined as 0.07.

B23: clone 12 (scFv, V domains shown)
VH: not shown
VL: DIQMTQSPSSLSASVGDRVTITCRASQDIGGGSVAWYQQKPGKAPKLLIYWGSFLYSGVPSRFSGSGSGTDFTLTISSLQPEDFATYYCQQHYTTPPTFGQGTKVEIK
As for B23, in experiment [1], the “% signal, SSC +/- 50 or 100nM VEGF” value came to 81.3% and the OD450 without competitor stood at 2.23. Also, in experiment [2], the OD450 without competitor was 0.04.

B24: clone 45 (scFv, V domains shown)
VH: not shown
VL: B23 VL with G30H, G31S, F54Y
Regarding B24, in [1], the “% signal, SSC +/- 50 or 100nM VEGF” value is 88.2% and the OD450 without competitor turned out to be 3.08. Further, the OD450 without competitor in [2] was 0.05.

B25: clone 27 (scFv, V domains shown)
VH: not shown
VL: DIQMTQSPSSLSASVGDRVTITCRASQYVYSTTVAWYQQKPGKAPKLLIYNGSSLYSGVPSRFSGSGSGTDFTLTISSLQPEDFATYYCQQASSAPPTFGQGTKVEIK
For B25, in experiment [1], the “% signal, SSC +/- 50 or 100nM VEGF” value was 95.7% and the OD450 without competitor came out at 2.82. Further, in experiment [2], the OD450 without competitor was 0.04.

B26: D1 hIgG (antibody, V domains shown)
VH: not shown
VL: DIQMTQSPSSLSASVGDRVTITCRASQNVSKHVAWYQQKPGKAPKLLIYWGSYLYSGVPSRFSGSGSGTDFTLTISSLQPEDFATYYCQQSYSGPPTFGQGTKVEIKR
notes: also called bD1 IgG; D1 (anti-hDR5/Her2); not shown: rest of the human IgG heavy chain constant region
Take B26: the binding result in experiment [7] is reported as “no binding (tested: 100 nM (text))”; in experiment [8], “no binding (tested: 100 nM (text))”; in [9], “no binding (tested: 100 nM (text))”; in experiment [10], “no binding (tested: 100 or 500 nM (text))”; in [11] it was “no binding (tested: 100 or 500 nM (text))”; in experiment [12] it was “no binding (tested: 100 or 500 nM (text))”. Also, the binding result in [13] and in experiment [14] was “no binding (tested: 100 or 500 nM (text))” throughout.

What is called IC50 is the point on the concentration scale where inhibition reaches its midpoint. A high value points to weaker potency in that assay. The Kd is a measure of binding affinity in units of concentration. A higher Kd goes with lower affinity.
